# Data from patent publication US20240199761A1 (AstraZeneca / MedImmune, published 2024).
# B1: Clone 12 (Bis3, FQQ-YTE; Fab anti-PAD2, scFv anti-PAD4) (bispecific antibody, human IgG1, lambda)
# heavy: not shown
# light: SYVLTQPPSVSVSPGQTASITCSGDKVGDKYVSWYQQKPGQSPVLVIYQDSQRPSGIPERFSGSNSGNTATLTISGTQAMDEADYYCQTWAPDVLLFGSGTKVTVLGQPKAAPSVTLFPPSSEELQANKATLVCLISDFYPGAVTVAWKADSSPVKAGVETTTPSKQSNNKYAASSYLSLTPEQWKSHRSYSCQVTHEGSTVEKTVAPTECS
# notes: Bivalent bispecific IgG-HC-scFv; also called PAD240012; Bis3 = scFv (PAD4)-Fab(PAD2)
# Key:
# huFcRn = biological target: T1, huFcRn (human, UniProt P55899 24-297; P61769 21-119, limits assumed); test: huFcRn affinity chromatography, pH gradient elution
# T1 construct: also called human neonatal Fc receptor
# recombinant mouse PAD2 = biological target: T2, recombinant mouse PAD2 (mouse, UniProt Q08642 1-673); test: ratio of SPR KDs, mouse PAD2 against human PAD2; biotinylated antibody captured on C1-streptavidin, PAD flowed over
# T2 construct: Recombinant and tagged
binder,measurement,setting,value
B1,HPLC retention,huFcRn,22.8 min
same,Relative retention,huFcRn,0.746
same,"fold difference in KD, mouse/human",recombinant mouse PAD2,2.1 fold
